Assay results from the supplement of paper PMC11811203.

B1: THAP1; numbered along this chain (parent)
chain: MVQSCSAYGCKNRYDKDKPVSFHKFPLTRPSLCKEWEAAVRRKNFKPTKYSSICSEHFTPDCFKRECNNKLLKENAVPTIFLCTEPHDKKEDLLEPQEQLPPPPLPPPVSQVDAAIGLLMPPLQTPVNLSVFCDHNYTVEDTMHQRKRIHQLEQQVEKLRKKLKTAQQRCRRQERQLEKLKEVVHFQKEKDDVSERGYVILPNDYFEIVEVPA

Variants of: B1
Assay: THAP1 transcriptional activity (GFP+/GFP- enrichment relative to wild-type constructs) (ratio to WT); higher = more THAP1 activity (PSMB5 reporter activation)
Conditions: with PSMB5 promoter-GFP reporter
Summary of the method: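 In duplicate, a lentivirus-delivered library with every residue from 2–213 of human THAP1 changed to all 20 amino acids was introduced at MOI ~0.3 into THAP1-knockout HEK-293T cells carrying endogenous PSMB5 tagged by mClover3 knock-in. Five days on, BFP+ cells were binned as GFP-dim or GFP-bright, and Illumina sequencing of genomic DNA amplicons counted each variant. Activity is the bright/dim read fold change, averaged over replicates and scaled to the mean of wild-type synonymous constructs.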

Variant	THAP1 transcriptional activity
MVQSCSAYGCKNRYDKDKPVSFHKFPLTRPSLCKEWEAAVRRKNFKPTKYSSICSEHFTPDCFKRECNNKLLKENAVPTIMLCTEPHDKKEDLLEPQEQLPPPPLPPPVSQVDAAIGLLMPPLQTPVNLSVFCDHNYTVEDTMHQRKRIHQLEQQVEKLRKKLKTAQQRCRRQERQLEKLKEVVHFQKEKDDVSERGYVILPNDYFEIVEVPA [F81M]	0.341
MVQSCSAYGCKNRYDKDKPVSFHKFPLTRPSLCKEWEAAVRRKNFKPTKYSSICSEHFTPDCFKRECNNKLLKENAVPTINLCTEPHDKKEDLLEPQEQLPPPPLPPPVSQVDAAIGLLMPPLQTPVNLSVFCDHNYTVEDTMHQRKRIHQLEQQVEKLRKKLKTAQQRCRRQERQLEKLKEVVHFQKEKDDVSERGYVILPNDYFEIVEVPA [F81N]	0.75
MVQSCSAYGCKNRYDKDKPVSFHKFPLTRPSLCKEWEAAVRRKNFKPTKYSSICSEHFTPDCFKRECNNKLLKENAVPTIPLCTEPHDKKEDLLEPQEQLPPPPLPPPVSQVDAAIGLLMPPLQTPVNLSVFCDHNYTVEDTMHQRKRIHQLEQQVEKLRKKLKTAQQRCRRQERQLEKLKEVVHFQKEKDDVSERGYVILPNDYFEIVEVPA [F81P]	0.275
MVQSCSAYGCKNRYDKDKPVSFHKFPLTRPSLCKEWEAAVRRKNFKPTKYSSICSEHFTPDCFKRECNNKLLKENAVPTIQLCTEPHDKKEDLLEPQEQLPPPPLPPPVSQVDAAIGLLMPPLQTPVNLSVFCDHNYTVEDTMHQRKRIHQLEQQVEKLRKKLKTAQQRCRRQERQLEKLKEVVHFQKEKDDVSERGYVILPNDYFEIVEVPA [F81Q]	0.206
MVQSCSAYGCKNRYDKDKPVSFHKFPLTRPSLCKEWEAAVRRKNFKPTKYSSICSEHFTPDCFKRECNNKLLKENAVPTIRLCTEPHDKKEDLLEPQEQLPPPPLPPPVSQVDAAIGLLMPPLQTPVNLSVFCDHNYTVEDTMHQRKRIHQLEQQVEKLRKKLKTAQQRCRRQERQLEKLKEVVHFQKEKDDVSERGYVILPNDYFEIVEVPA [F81R]	0.298
MVQSCSAYGCKNRYDKDKPVSFHKFPLTRPSLCKEWEAAVRRKNFKPTKYSSICSEHFTPDCFKRECNNKLLKENAVPTISLCTEPHDKKEDLLEPQEQLPPPPLPPPVSQVDAAIGLLMPPLQTPVNLSVFCDHNYTVEDTMHQRKRIHQLEQQVEKLRKKLKTAQQRCRRQERQLEKLKEVVHFQKEKDDVSERGYVILPNDYFEIVEVPA [F81S]	0.443
MVQSCSAYGCKNRYDKDKPVSFHKFPLTRPSLCKEWEAAVRRKNFKPTKYSSICSEHFTPDCFKRECNNKLLKENAVPTITLCTEPHDKKEDLLEPQEQLPPPPLPPPVSQVDAAIGLLMPPLQTPVNLSVFCDHNYTVEDTMHQRKRIHQLEQQVEKLRKKLKTAQQRCRRQERQLEKLKEVVHFQKEKDDVSERGYVILPNDYFEIVEVPA [F81T]	0.207
MVQSCSAYGCKNRYDKDKPVSFHKFPLTRPSLCKEWEAAVRRKNFKPTKYSSICSEHFTPDCFKRECNNKLLKENAVPTIVLCTEPHDKKEDLLEPQEQLPPPPLPPPVSQVDAAIGLLMPPLQTPVNLSVFCDHNYTVEDTMHQRKRIHQLEQQVEKLRKKLKTAQQRCRRQERQLEKLKEVVHFQKEKDDVSERGYVILPNDYFEIVEVPA [F81V]	0.312
MVQSCSAYGCKNRYDKDKPVSFHKFPLTRPSLCKEWEAAVRRKNFKPTKYSSICSEHFTPDCFKRECNNKLLKENAVPTIYLCTEPHDKKEDLLEPQEQLPPPPLPPPVSQVDAAIGLLMPPLQTPVNLSVFCDHNYTVEDTMHQRKRIHQLEQQVEKLRKKLKTAQQRCRRQERQLEKLKEVVHFQKEKDDVSERGYVILPNDYFEIVEVPA [F81Y]	0.214
MVQSCSAYGCKNRYDKDKPVSFHKFPLTRPSLCKEWEAAVRRKNFKPTKYSSICSEHFTPDCFKRECNNKLLKENAVPTIFACTEPHDKKEDLLEPQEQLPPPPLPPPVSQVDAAIGLLMPPLQTPVNLSVFCDHNYTVEDTMHQRKRIHQLEQQVEKLRKKLKTAQQRCRRQERQLEKLKEVVHFQKEKDDVSERGYVILPNDYFEIVEVPA [L82A]	1.84
MVQSCSAYGCKNRYDKDKPVSFHKFPLTRPSLCKEWEAAVRRKNFKPTKYSSICSEHFTPDCFKRECNNKLLKENAVPTIFCCTEPHDKKEDLLEPQEQLPPPPLPPPVSQVDAAIGLLMPPLQTPVNLSVFCDHNYTVEDTMHQRKRIHQLEQQVEKLRKKLKTAQQRCRRQERQLEKLKEVVHFQKEKDDVSERGYVILPNDYFEIVEVPA [L82C]	0.521
MVQSCSAYGCKNRYDKDKPVSFHKFPLTRPSLCKEWEAAVRRKNFKPTKYSSICSEHFTPDCFKRECNNKLLKENAVPTIFDCTEPHDKKEDLLEPQEQLPPPPLPPPVSQVDAAIGLLMPPLQTPVNLSVFCDHNYTVEDTMHQRKRIHQLEQQVEKLRKKLKTAQQRCRRQERQLEKLKEVVHFQKEKDDVSERGYVILPNDYFEIVEVPA [L82D]	1.34
MVQSCSAYGCKNRYDKDKPVSFHKFPLTRPSLCKEWEAAVRRKNFKPTKYSSICSEHFTPDCFKRECNNKLLKENAVPTIFECTEPHDKKEDLLEPQEQLPPPPLPPPVSQVDAAIGLLMPPLQTPVNLSVFCDHNYTVEDTMHQRKRIHQLEQQVEKLRKKLKTAQQRCRRQERQLEKLKEVVHFQKEKDDVSERGYVILPNDYFEIVEVPA [L82E]	1.33
MVQSCSAYGCKNRYDKDKPVSFHKFPLTRPSLCKEWEAAVRRKNFKPTKYSSICSEHFTPDCFKRECNNKLLKENAVPTIFGCTEPHDKKEDLLEPQEQLPPPPLPPPVSQVDAAIGLLMPPLQTPVNLSVFCDHNYTVEDTMHQRKRIHQLEQQVEKLRKKLKTAQQRCRRQERQLEKLKEVVHFQKEKDDVSERGYVILPNDYFEIVEVPA [L82G]	1.31
